# Results as given in IntAct's records for PubMed 23917616.
# B1: Myotubularin (Homo sapiens), Q13496 (parent)
# chain: MASASTSKYNSHSLENESIKRTSRDGVNRDLTEAVPRLPGETLITDKEVIYICPFNGPIKGRVYITNYRLYLRSLETDSSLILDVPLGVISRIEKMGGATSRGENSYGLDITCKDMRNLRFALKQEGHSRRDMFEILTRYAFPLAHSLPLFAFLNEEKFNVDGWTVYNPVEEYRRQGLPNHHWRITFINKCYELCDTYPALLVVPYRASDDDLRRVATFRSRNRIPVLSWIHPENKTVIVRCSQPLVGMSGKRNKDDEKYLDVIRETNKQISKLTIYDARPSVNAVANKATGGGYESDDAYHNAELFFLDIHNIHVMRESLKKVKDIVYPNVEESHWLSSLESTHWLEHIKLVLTGAIQVADKVSSGKSSVLVHCSDGWDRTAQLTSLAMLMLDSFYRSIEGFEILVQKEWISFGHKFASRIGHGDKNHTDADRSPIFLQFIDCVWQMSKQFPTAFEFNEQFLIIILDHLYSCRFGTFLFNCESARERQKVTERTVSLWSLINSNKEKFKNPFYTKEINRVLYPVASMRHLELWVNYYIRWNPRIKQQQPNPVEQRYMELLALRDEYIKRLEELQLANSAKLSDPPTSPSSPSQMMPHVQTHF
# partner: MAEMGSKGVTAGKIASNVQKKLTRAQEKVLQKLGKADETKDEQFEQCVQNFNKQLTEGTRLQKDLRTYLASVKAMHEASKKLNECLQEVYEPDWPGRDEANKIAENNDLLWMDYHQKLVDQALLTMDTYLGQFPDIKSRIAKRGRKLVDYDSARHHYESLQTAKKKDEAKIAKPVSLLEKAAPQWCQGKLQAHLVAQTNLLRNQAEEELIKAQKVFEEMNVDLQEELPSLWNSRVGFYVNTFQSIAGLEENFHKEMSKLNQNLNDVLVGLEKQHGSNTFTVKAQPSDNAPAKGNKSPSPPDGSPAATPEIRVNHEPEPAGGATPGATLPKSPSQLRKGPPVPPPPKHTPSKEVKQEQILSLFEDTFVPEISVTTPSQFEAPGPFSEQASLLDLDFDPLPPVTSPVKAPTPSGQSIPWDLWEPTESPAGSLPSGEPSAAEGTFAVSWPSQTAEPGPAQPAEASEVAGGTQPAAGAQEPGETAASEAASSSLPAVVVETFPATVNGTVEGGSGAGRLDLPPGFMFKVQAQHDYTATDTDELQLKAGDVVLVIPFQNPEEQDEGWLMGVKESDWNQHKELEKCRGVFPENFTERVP
# Variants of: B1
# Conditions: with bin1_human BIN1, O00499
row,Variant,effect of a mutation on the interaction
1,C375S,disrupting interaction
